This passage reports Duffy selectivity and DARC binding results from patent publication US7238711 (CAMBRIDGE ENTERPRISE, dated 2007).

Experiment [1] has as its target T1, Duffy Antigen Receptor for Chemokines (DARC) (human, UniProt Q16570 1-336).
T1 construct: whole, on cells; also called red blood cells expressing DARC
T1 sequence (looked up): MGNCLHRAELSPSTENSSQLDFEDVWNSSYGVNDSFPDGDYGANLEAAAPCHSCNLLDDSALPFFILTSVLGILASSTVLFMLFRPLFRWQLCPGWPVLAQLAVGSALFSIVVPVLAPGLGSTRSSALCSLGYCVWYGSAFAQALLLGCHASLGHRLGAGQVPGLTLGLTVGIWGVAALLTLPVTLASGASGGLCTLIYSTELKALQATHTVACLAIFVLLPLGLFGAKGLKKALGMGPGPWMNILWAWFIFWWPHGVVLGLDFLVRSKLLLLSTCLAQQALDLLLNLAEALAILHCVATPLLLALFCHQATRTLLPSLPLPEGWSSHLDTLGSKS
Put plainly: ka for red blood cells divided by ka for THP-1 cells.

Experiment [2] concerns the target T1, Duffy Antigen Receptor for Chemokines …. Put plainly: DARC binding, Table 18.

Some results are limits rather than exact numbers.

B1: peptide 2(1-15)[MCP-1] (peptide)
peptide: SYRRITSSKCPKEAV
notes: also called Pep2[MCP1]; Pep2(1-15)[MCP1]
Consider B1, for which the Duffy selectivity in experiment [1] is 0.18. In experiment [2], the DARC binding was 0.1 µM.

B2: Pep2(1-14)[MIP1α] (peptide)
peptide: DYFETSSQCSKPGV
notes: also called Pep2[MIP1α]; peptide 2(1-15)[MIP1-α]
Take B2: the Duffy selectivity in experiment [1] is above 100.
In experiment [2], SYRRITSSKC showed a DARC binding of 22 µM.

B3: Pep2(1-15)[SDF1] (peptide)
peptide: HLKILNTPNCALQIV
notes: also called Pep2[SDF1]; peptide 2(1-15)[SDF1α]
Regarding B3, the Duffy selectivity in experiment [1] was below 1. In experiment [2], this molecule returned a DARC binding of 19 µM.
